We go through two molecules from JP2016528193A (dated 2016).

Experiment [1] concerns the target ヒトPCSK9(野生型) (human). Put plainly: KinExA solution equilibrium, PCSK9-coated beads.
Experiment [2] deals with ヒトPCSK9(野生型) (human). The experiment in a line: Biacore at pH 6.0 (HBS-P with 0.01 % BSA), fitted from competition curves, n=1.

B1: 31H4 (antibody, V domains shown)
VH: EVQLVESGGGLVKPGGSLRLSCAASGFTFSSYSMNWVRQAPGKGLEWVSSISSSSSYISYADSVKGRFTISRDNAKNSLYLQMNSLRAEDTAVYFCARDYDFWSAYYDAFDVWGQGTMVTVSS
VL: QSVLTQPPSVSGAPGQRVTISCTGSSSNIGAGYDVHWYQQLPGTAPKLLISGNSNRPSGVPDRFSGSKSGTSASLAITGLQAEDEADYYCQSYDSSLSGSVFGGGTKLTVLQ
Take B1: the Kd with ヒトPCSK9(野生型) [1] is 0.003 nM; with ヒトPCSK9(野生型) [2], 0.0125 nM.

B2: 16F12 (antibody, V domains shown)
VH: QVHLVESGGGVVQPGRSLRLSCAASGFTFNSFGMHWVRQAPGKGLEWVALIWSDGSDEYYADSVKGRFTISRDNSKNTLYLQMNSLRAEDTAVYYCARAIAALYYYYGMDVWGQGTTVTVSS
VL: QSVLTQPPSVSAAPGQKVTISCSGSSSNIGNNFVSWYQQLPGTAPKLLIYDYNKRPSGIPDRFSGSKSGTSATLGITGLQTGDEADYYCGTWDSSLSAYVFGTGTRVTVLQ
B2: the Kd in the experiment with ヒトPCSK9(野生型) [1] is 0.015 nM; in the experiment with ヒトPCSK9(野生型) [2], 0.029 nM.
